In PMC12556795:
Each block holds one substance with its values, some of them ahead of it.

Columns and labels:
[1] = biological target: 60S ribosomal subunit (rabbit) (rabbit (endogenous in reticulocyte lysate)) (UniProt P19949)
[2] = biological target: DCC C-tail ΔP3 protein (residues 1121-1424) (H. sapiens) (UniProt P43146); assay: other fluorescence titration; initial fluorescence read on the MST instrument; Cy5-labelled ΔP3 at 5 nM, 60S subunits titrated from 5 uM to 0.15 nM; 20 mM Tris-HCl pH 7.5, 100 mM KCl, 2 mM Mg(OAc)2, 1 mM DTT, 0.5 mM EDTA, 0.25 M sucrose; 25 °C; 1:1 binding model; KD values called relative
[3] = biological target: DCC C-tail N29+P1 protein (residues 1121-1167) (H. sapiens) (UniProt P43146); assay: MST; Cy5-labelled DCC protein (target) at 5 nM, purified 60S subunits (ligand) titrated from 5 uM to 0.15 nM over 16 capillaries; 20 mM Tris-HCl pH 7.5, 100 mM KCl, 2 mM Mg(OAc)2, 1 mM DTT, 0.5 mM EDTA, 0.25 M sucrose; 25 °C; 1:1 binding model; KD values called relative, not absolute (limited by 60S solubility)
[4] = biological target: DCC C-tail ΔN29+P1 protein (residues 1168-1447) (H. sapiens) (UniProt P43146); assay: as above
[5] = biological target: 60S ribosomal subunit (rabbit) (rabbit (endogenous in reticulocyte lysate)) (UniProt P19949); remark: listed apart in the source

Sequence of DCC C-tail ΔN29+P1 protein (residues 1168-1447) (H. sapiens) (P43146 1168-1447, stated change not applied): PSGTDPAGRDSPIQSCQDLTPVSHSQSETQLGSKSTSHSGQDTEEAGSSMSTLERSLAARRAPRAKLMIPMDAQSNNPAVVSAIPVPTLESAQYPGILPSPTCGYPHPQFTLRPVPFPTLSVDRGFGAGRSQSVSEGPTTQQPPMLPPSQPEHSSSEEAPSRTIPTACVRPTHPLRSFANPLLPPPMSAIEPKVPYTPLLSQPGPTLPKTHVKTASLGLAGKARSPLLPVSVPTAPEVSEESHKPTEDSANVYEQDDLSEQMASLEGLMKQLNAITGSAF
Sequence of DCC C-tail ΔP3 protein (residues 1121-1424) (P43146 1121-1424, stated change not applied): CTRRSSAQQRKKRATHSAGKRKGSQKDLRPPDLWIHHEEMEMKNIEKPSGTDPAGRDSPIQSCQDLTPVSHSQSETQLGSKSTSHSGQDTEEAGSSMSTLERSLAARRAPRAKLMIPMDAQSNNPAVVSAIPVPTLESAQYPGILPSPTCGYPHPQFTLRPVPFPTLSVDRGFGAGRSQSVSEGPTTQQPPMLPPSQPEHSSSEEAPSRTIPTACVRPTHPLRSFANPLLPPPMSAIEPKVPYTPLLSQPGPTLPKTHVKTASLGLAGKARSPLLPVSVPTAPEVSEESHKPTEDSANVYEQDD
Sequence of DCC C-tail ΔP3 protein (residues 1121-1424) (H. sapiens) (P43146 1121-1424, stated change not applied): as above
Sequence of DCC C-tail N29+P1 protein (residues 1121-1167) (H. sapiens) (P43146 1121-1167): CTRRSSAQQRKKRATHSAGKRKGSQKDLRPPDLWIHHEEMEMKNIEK
Sequence of DCC C-tail N29+P1 protein (residues 1121-1167) (P43146 1121-1167): as above

decrease of in vitro translation of a luciferase reporter mRNA in rabbit reticulocyte lysate by the DCC protein (3 and 6 μM) (% decrease of translation) [1]: 90
Substance: DCC C-tail N29+P1 protein (residues 1121-1167) (from UniProt P43146 1121-1167) (domain or fragment)

Kd [2]: 68.4 nM | Kd [3]: 80.1 nM | Kd [4]: 285 nM
Substance: 60S ribosomal subunit (rabbit) (from UniProt P19949 1-297) (complex)

inhibition of in vitro translation of a luciferase reporter mRNA in rabbit reticulocyte lysate by 3 μM DCC protein (% inhibition of translation) [5]: 92
Substance: DCC C-tail ΔP3 protein (residues 1121-1424) (from UniProt P43146 1121-1424) (domain or fragment)

decrease of in vitro translation of a luciferase reporter mRNA in rabbit reticulocyte lysate by the DCC protein (3 and 6 μM) (% decrease of translation) [1]: 20
Substance: DCC C-tail N29+P1 KRK→AAA protein (residues 1121-1167, alanines at 1140 to 1142) (from UniProt P43146 1121-1167) (domain or fragment)
